# Experimental data: publication PMC3895837
# Target: T1, Siglec-5 (Sialic acid-binding Ig-like lectin 5) (human (NB4 AML cell line)) (UniProt O15389)
# T1 sequence: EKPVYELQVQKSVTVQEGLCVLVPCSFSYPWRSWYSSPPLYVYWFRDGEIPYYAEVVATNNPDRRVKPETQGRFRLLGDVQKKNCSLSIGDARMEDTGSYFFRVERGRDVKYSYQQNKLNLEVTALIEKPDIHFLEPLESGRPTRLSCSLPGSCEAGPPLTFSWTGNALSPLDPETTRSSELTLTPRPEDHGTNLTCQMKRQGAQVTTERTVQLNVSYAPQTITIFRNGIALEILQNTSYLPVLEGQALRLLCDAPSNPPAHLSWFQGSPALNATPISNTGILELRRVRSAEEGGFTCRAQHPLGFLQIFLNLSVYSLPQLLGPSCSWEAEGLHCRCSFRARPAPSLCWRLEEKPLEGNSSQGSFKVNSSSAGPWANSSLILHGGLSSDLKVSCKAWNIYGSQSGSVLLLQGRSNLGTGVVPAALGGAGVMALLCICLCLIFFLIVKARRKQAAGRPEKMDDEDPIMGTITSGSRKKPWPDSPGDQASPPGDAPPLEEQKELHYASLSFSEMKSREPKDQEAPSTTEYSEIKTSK
# Test: flow cytometry on NB4 cells
# Details: PBS with 4.5 g/L glucose, 5 mM MgCl2, 0.1 mg/ml yeast tRNA, 1 mg/ml BSA (0.1% NaN3 for flow cytometry), on ice 30 min; pH not stated; JH6 and JH19 (whole-cell …)
sequence,measurement,value
GACGCTTACTCAGGTGTGACTCGAAGGGGTTGGGTGGGTTTATACAAATTAATTAATATTGTATGGTATATTTCGAAGGACGCAGATGAAGTCTC [K19],Kd,12.4 nM
